According to patent US20200102347A1 (AUCTUS BIOLOGIES, published 2020):
No end group written: not given here. *: point of attachment. RhodamineB = CCN(CC)c1ccc2c(-c3ccccc3C(=O)*)c3ccc(=[N+](CC)CC)cc-3oc2c1

T1: NativeRPtag(large)_with_Tags_and_Cys (Thermoanaerobacter tengcongensis)
T1 construct: Unlabeled in anisotropy assays; coupled through the engineered N-terminal Cys to SulfoLink agarose or maleimide plates in column, pull-down and ELISA assays
T1 chain: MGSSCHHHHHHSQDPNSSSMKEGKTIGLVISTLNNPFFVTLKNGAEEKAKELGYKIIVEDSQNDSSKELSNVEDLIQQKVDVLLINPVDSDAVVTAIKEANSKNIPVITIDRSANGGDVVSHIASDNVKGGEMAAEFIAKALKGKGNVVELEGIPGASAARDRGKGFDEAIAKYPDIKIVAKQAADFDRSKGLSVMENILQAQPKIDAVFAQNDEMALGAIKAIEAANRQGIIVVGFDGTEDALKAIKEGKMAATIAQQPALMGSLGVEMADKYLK


Columns and labels:
[1] = target: T1, NativeRPtag(large)_with_Tags_and_Cys; experiment: fluorescence anisotropy
[2] = target: T1, NativeRPtag(large)_with_Tags_and_Cys; experiment: calculated from koff and Kd
[3] = target: T1, NativeRPtag(large)_with_Tags_and_Cys; experiment: fluorescence anisotropy, competitor chase
[4] = target: T1, NativeRPtag(large)_with_Tags_and_Cys; experiment: fluorescence anisotropy, association kinetics

Row | Molecule | Kd [1] | kon [2] | koff [3] | Keq (S-S*) [4] | kf (S to S*) [4] | kr (S* to S) [4]
1 | RPtag(small) Nd2, k3a, e18a (peptide) | 0.88 nM | 433000 M⁻¹ s⁻¹ | 0.000533 s⁻¹ |  |  | 
2 | RhodamineB-KIPNFIPAELKLITKANVQ [RPtag(small) Nd2, e18a] | 0.13 nM | 1.08e+06 M⁻¹ s⁻¹ | 0.000138 s⁻¹ | 0.4 | 0.044 min⁻¹ | 0.13 min⁻¹
3 | RhodamineB-KIPNFIPAELKLITKENVQ [RPtag(small) Nd2] | 0.067 nM | 883000 M⁻¹ s⁻¹ | 5.83e-05 s⁻¹ | 0.7 | 0.063 min⁻¹ | 0.086 min⁻¹
4 | RhodamineB-RIANFIPAELKLITKANVQ [RPtag(small) Nd2, k3r, p5a, e18a] | 0.26 nM | 567000 M⁻¹ s⁻¹ | 0.000217 s⁻¹ |  |  | 
5 | RhodamineB-GEKIPNFIPAELKL [RPtag(small) Cd7] | 30000 nM |  | > 0.0333 s⁻¹ |  |  | 
6 | RhodamineB-IANFIPAELKLITKANVQ [RPtag(small) Nd3, p5a, e18a] | 0.63 nM | 1.53e+06 M⁻¹ s⁻¹ | 0.000967 s⁻¹ |  |  | 
7 | RhodamineB-KLITKENVQ [RPtag(small) Nd12] | 520 nM |  | > 0.0333 s⁻¹ |  |  | 
8 | RhodamineB-IPNFIPAELKLITKENVQ [RPtag(small) Nd3] | 0.14 nM | 1.47e+06 M⁻¹ s⁻¹ | 0.0002 s⁻¹ |  |  | 
9 | RhodamineB-GEKIPNFIPAELKLIT [RPtag(small) Cd5] | 3.6 nM | 1.83e+06 M⁻¹ s⁻¹ | 0.0065 s⁻¹ |  |  | 
10 | RhodamineB-IPAELKLITKENVQ [RPtag(small) Nd7] | 2.4 nM | 300000 M⁻¹ s⁻¹ | 0.0007 s⁻¹ |  |  | 
11 | RhodamineB-NFIPAELKLITKENVQ [RPtag(small) Nd5] | 0.59 nM | 1.6e+06 M⁻¹ s⁻¹ | 0.000933 s⁻¹ |  |  | 
12 | RhodamineB-GAKIPNFIPAELKLITKENVQ [RPtag(small) e2a] | 0.1 nM | 850000 M⁻¹ s⁻¹ | 8.83e-05 s⁻¹ | 1.9 | 0.084 min⁻¹ | 0.044 min⁻¹
13 | RhodamineB-GEKIPNFIPAALKLITKENVQ [RPtag(small) e11a] | 0.8 nM | 76700 M⁻¹ s⁻¹ | 0.000112 s⁻¹ | 1.9 | 0.08 min⁻¹ | 0.042 min⁻¹
14 | RhodamineB-GEKIPNFIPAELKAITKENVQ [RPtag(small) l14a] | 8.9 nM |  | > 0.0333 s⁻¹ | 1.8 | 0.075 min⁻¹ | 0.044 min⁻¹
15 | RhodamineB-GEAIPNFIPAELKLITKENVQ [RPtag(small) k3a] | 0.49 nM | 183000 M⁻¹ s⁻¹ | 8.83e-05 s⁻¹ |  |  | 
16 | RhodamineB-GEKIPNFIPAELKLITAENVQ [RPtag(small) k17a] | 0.54 nM | 167000 M⁻¹ s⁻¹ | 9.5e-05 s⁻¹ |  |  | 
17 | RhodamineB-GEKIPNFIPAELKLITKANVQ [RPtag(small) e18a] | 0.056 nM | 2.67e+06 M⁻¹ s⁻¹ | 0.000145 s⁻¹ | 1.1 | 0.054 min⁻¹ | 0.048 min⁻¹
18 | RhodamineB-GEKIPNAIPAELKLITKENVQ [RPtag(small) f7a] | 2 nM | 517000 M⁻¹ s⁻¹ | 0.00105 s⁻¹ | 2.2 | 0.08 min⁻¹ | 0.036 min⁻¹

Row | Molecule | Kd [1] | kon [2] | koff [3] | Keq (S-S*) [4] | kf (S to S*) [4] | kr (S* to S) [4]
19 | RhodamineB-ELKLITKE [RPtag(small) Nd10, Cd3] | 57 nM |  | > 0.0333 s⁻¹ |  | 0.32 min⁻¹ | 0.05 min⁻¹
20 | RhodamineB-ELKLITKA [RPtag(small) Nd10, Cd3, e18a] | 71 nM |  | > 0.0333 s⁻¹ |  |  | 
21 | RhodamineB-GEKIPNFIPAELKLI [RPtag(small) Cd6] | 200 nM |  | > 0.0333 s⁻¹ |  |  | 
22 | RhodamineB-LITKENVQ [RPtag(small) Nd13] | 84000 nM |  | > 0.0333 s⁻¹ |  |  | 
23 | RhodamineB-PNFIPAELKLITKENVQ [RPtag(small) Nd4] | 0.3 nM | 1.57e+06 M⁻¹ s⁻¹ | 0.000467 s⁻¹ |  |  | 
24 | RhodamineB-PAELKLITKENVQ [RPtag(small) Nd8] | 0.59 nM | 1.55e+06 M⁻¹ s⁻¹ | 0.000917 s⁻¹ |  |  | 
25 | RhodamineB-AELKLITKENVQ [RPtag(small) Nd9] | 4.9 nM | 1.37e+06 M⁻¹ s⁻¹ | 0.00667 s⁻¹ |  |  | 
26 | RhodamineB-FIPAELKLITKENVQ [RPtag(small) Nd6] | 0.54 nM | 2e+06 M⁻¹ s⁻¹ | 0.00108 s⁻¹ |  |  | 
27 | RhodamineB-FIPAELKLITKE [RPtag(small) Nd6, Cd3] | 7.3 nM |  | > 0.0333 s⁻¹ |  |  | 
28 | RhodamineB-FIPAELKLITKA [RPtag(small) Nd6, Cd3, e18a] | 8.2 nM |  | > 0.0333 s⁻¹ |  |  | 
29 | RhodamineB-PAELKLITKE [RPtag(small) Nd8, Cd3] | 11 nM |  | > 0.0333 s⁻¹ | 6.5 | 0.095 min⁻¹ | 0.015 min⁻¹
30 | RhodamineB-PAELKLITKA [RPtag(small) Nd8, Cd3, e18a] | 13 nM |  | > 0.0333 s⁻¹ |  |  | 
31 | RhodamineB-LKLITKENVQ [RPtag(small) Nd11] | 16 nM | 1.18e+06 M⁻¹ s⁻¹ | 0.02 s⁻¹ |  |  | 
32 | RhodamineB-ELKLITKENVQ [RPtag(small) Nd10] | 5.9 nM | 717000 M⁻¹ s⁻¹ | 0.00417 s⁻¹ |  |  | 
33 | RhodamineB-AIANFIPAELKLITKENVQ [RPtag(small) Nd2, k3a, p5a] | 0.55 nM | 400000 M⁻¹ s⁻¹ | 0.00015 s⁻¹ |  |  | 
34 | RhodamineB-ELKLIT [RPtag(small) Nd10, Cd5] | 250 nM |  | > 0.0333 s⁻¹ |  |  | 
35 | RhodamineB-FIPAELKLITK [RPtag(small) Nd6, Cd4] | 9.9 nM |  | > 0.0333 s⁻¹ |  |  | 
